Experimental findings from US20260070976A1 (Alector, published 2026) are described below.

For test [1], the target named is T1, cell surface PILRA on human monocytes (human, UniProt Q9UKJ1 20-303). The experiment in a line: cell-based or functional assay.
The target in test [2] is T2, human PILRA G78 on HEK293F cells (human, UniProt Q9UKJ1 20-303).
T2 construct: also called hA; G78 OE
The test is described as follows: hA Kd of Table 9; method not stated (Example 8: HEK293F overexpressing cells, FACS).

A further test has as its target recombinant human PILRA (human, UniProt Q9UKJ1 20-197). The test is described as follows: SPR, Biacore T200, antibody captured by anti-Fab. The protocol: (§1) A subset of these antibodies was further evaluated using the Biacore T200 (Cytiva). Anti-PILRA antibodies were diluted to 10 μg/mL and captured using an anti-Fab (Cytiva, #28958325) surface on a CM4 chip, that was prepared by amine coupling according to the manufacturer's protocol. Human PILRA and cynomolgus PILRB were diluted in running buffer to 130 nM, and diluted 4-fold serially, twice, to 8 nM. Human PILRB was similarly diluted from 260 nM to 16 nM. These analytes were injected and allowed 2 minutes of association, followed by dissociation for 5 minutes.
(§2) Data were analyzed using Biacore evaluation software to generate kinetic constants. The equilibrium dissociation constants (KD) were calculated from the fitted association and dissociation rate constants (k-on and k-off) for each of the anti-PILRA antibodies. These Kn values are indicated with asterisks in Table 8 below.

In test [3] the target is T3, recombinant human PILRB (human, UniProt Q9UKJ0 20-191). The test is described as follows: SPR, Biacore T200, antibody captured by anti-Fab. The protocol:
as §1, §2

Test [4] addresses T1, cell surface PILRA on human monocytes. The test is described as follows: flow cytometry; Alexa Fluor 647-conjugated antibody on human CD14+ monocytes (second donor sample), Fc receptors blocked, 30 min on ice. As for the experimental part: Anti-human PILRA antibodies X0 (PA-29) and its affinity matured variants were tested for their abilities to bind cell surface PILRA on human and cynomolgus monocytes. CD14+ monocytes were isolated from healthy human donors using a RosetteSep Human Monocyte Enrichment Cocktail kit (StemCell). Cynomolgus white blood cells were collected from cynomolgus whole blood. In both human and cynomolgus samples, the Fc receptor on the tested monocytes was blocked and the monocytes were treated with Alexa Fluor 647-conjugated PILRA antibodies for 30 minutes on ice. A dose response curve of antibodies X0 (PA-29), X1, X2, X7, X11, X12, X13, X14, X16, X18, and X20 was tested for binding to cell surface PILRA in human and cynomolgus monocytes, and antibodies bound to PILRA in a dose response manner. In another sample of human donor monocytes, a dose response curve of antibodies X0 (PA-29), X1, X2, X11, X13, X18, X29 (PA-43), and X34 (A6) was tested for binding to cell surface PILRA in human and cynomolgus monocytes, and antibodies bound to PILRA in a dose response manner.

For test [5], the target named is T3, recombinant human PILRB. The test is described as follows: SPR, Carterra LSA, steady-state fit.

T3 sequence (Q9UKJ0 20-191 limits assumed): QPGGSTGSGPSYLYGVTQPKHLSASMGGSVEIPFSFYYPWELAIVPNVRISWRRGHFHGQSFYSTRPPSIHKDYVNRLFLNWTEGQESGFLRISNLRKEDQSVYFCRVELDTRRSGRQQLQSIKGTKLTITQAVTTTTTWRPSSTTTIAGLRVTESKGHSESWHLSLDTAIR
T1 sequence (Q9UKJ1 20-303): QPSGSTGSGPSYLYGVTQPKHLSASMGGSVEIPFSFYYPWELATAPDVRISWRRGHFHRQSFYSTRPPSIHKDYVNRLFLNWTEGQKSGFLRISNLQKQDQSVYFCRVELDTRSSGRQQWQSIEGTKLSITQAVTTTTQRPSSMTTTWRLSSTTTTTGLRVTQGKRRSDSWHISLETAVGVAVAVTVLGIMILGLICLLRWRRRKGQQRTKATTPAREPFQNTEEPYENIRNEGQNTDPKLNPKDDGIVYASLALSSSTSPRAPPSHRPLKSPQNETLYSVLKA
Sequence of recombinant human PILRA (Q9UKJ1 20-197 limits assumed): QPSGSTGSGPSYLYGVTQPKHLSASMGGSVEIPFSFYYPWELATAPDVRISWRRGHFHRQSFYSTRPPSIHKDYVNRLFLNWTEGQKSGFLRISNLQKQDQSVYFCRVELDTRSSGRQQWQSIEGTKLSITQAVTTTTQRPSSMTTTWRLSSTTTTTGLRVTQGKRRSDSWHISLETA
T2 sequence (Q9UKJ1 20-303 R78G): as the sequence (Q9UKJ1 20-303) above, with R59G counted along it

B1: X13 (antibody, human IgG4, V domains shown)
VH: QVQLVQSGAEVKKPGSSVKVSCKASGYNFLHYDVNWVRQAPGQGLEWMGGIIPIFGTANYAQKFQGRVTITADESTSTAYMELSSLRSEDTAVYYCATAVGAGWFDPWGQGTLVTVSS
VL: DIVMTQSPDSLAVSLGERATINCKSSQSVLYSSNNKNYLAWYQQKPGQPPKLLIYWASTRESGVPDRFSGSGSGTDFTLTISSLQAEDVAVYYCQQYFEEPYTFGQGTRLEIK
notes: conditioned media in the HEK293F assays
With B1, in test [1], the “Hu Mono DR EC50” value was roughly 0.0004 µg/mL. In addition, the equilibrium dissociation constant (Kd) is 0.2 nM in test [2], 0.2 nM in the test with recombinant human PILRA, 9.1 nM with recombinant human PILRB [3] and 18 nM with recombinant human PILRB [5]. For the same molecule, in test [4], the “EC50 (read off the curve)” value was roughly 0.1 µg/mL.
